Reference: PMC3039672

Molecular target: partial heads (10am13am phage T4 heads that ejected most of their packaged DNA, keeping a ~8-kb piece) (bacteriophage T4) (UniProt P13334)
UniProt P13334, sequence (P13334 whole entry, looked up): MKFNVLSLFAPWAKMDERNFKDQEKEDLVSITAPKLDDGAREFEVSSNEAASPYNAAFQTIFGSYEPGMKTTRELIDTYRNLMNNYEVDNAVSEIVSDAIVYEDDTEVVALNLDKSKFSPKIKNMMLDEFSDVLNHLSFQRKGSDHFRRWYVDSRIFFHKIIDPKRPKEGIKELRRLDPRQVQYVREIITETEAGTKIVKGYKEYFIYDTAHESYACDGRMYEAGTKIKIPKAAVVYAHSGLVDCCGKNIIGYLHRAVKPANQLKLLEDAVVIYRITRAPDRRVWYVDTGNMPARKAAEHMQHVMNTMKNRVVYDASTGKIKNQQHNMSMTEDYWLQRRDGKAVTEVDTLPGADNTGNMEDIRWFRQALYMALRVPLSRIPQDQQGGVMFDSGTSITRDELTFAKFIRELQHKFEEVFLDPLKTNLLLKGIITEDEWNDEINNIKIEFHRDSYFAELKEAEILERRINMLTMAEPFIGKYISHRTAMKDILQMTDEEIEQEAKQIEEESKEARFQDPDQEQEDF

single molecule optical tweezers: packaging rate of 10-kb DNA against 5 pN by head-gp17 complexes: 1100 bp/s
Substance: full-length gp17 (large terminase protein, packaging motor) (from UniProt P17312 1-610) (enzyme)
